Consider two compounds from patent publication US20250235545A1, “POLYPEPTIDE CONJUGATE AND USE THEREOF” (SHANGHAI CHIXI BIOMEDICAL TECHNOLOGY CO., LTD, priority 2024, published 2025).

Series [1] relates to A2780 ovarian cancer tumor model. Kind of series: Efficacy in animal model of A2780 ovarian cancer, 30 mg/kg once a week for two weeks (Example 41). It is filed as in vivo, BALB/c mice. The following applies: Day 14. The method, then: Test objective: To further compare the antitumor efficacy of different polypeptide Linkers in an animal tumor model of A2780 ovarian cancer.
(§1) Test drug: Polypeptide conjugate and normal saline control group.
8×10^6 corresponding cells were injected into right axillas of nude mice subcutaneously. […] The negative control group was administered normal saline. Administration was performed once a week for two weeks.

The nature of series [2]: Homogenate activation efficiency, heart tissue (Examples 28, 37). In kind it is in vitro ADME. Conditions: pH 5.0, 37° C., 2 h; Table 10.
Series [3] can be described thus: Tumor homogenate activation efficiency, colorectal cancer tissue (Example 37). In kind it is in vitro ADME. The following applies: pH 5.0, 37° C., 2 h; Table 10. The method, then:
Buffer preparation: 50 mM PH buffer (MES), 250 mM NaCl, pH adjusted to 5.0 with 0.5 M of sodium hydroxide.
The polypeptide conjugate was prepared into a 1 mg/ml solution with pH 5.0 buffer, 100 μg of tumor tissue homogenate was added, (the tumor tissue homogenate was the homogenate of tumor tissues prepared with a Jingxin F6/10 handheld homogenizer), and the solution was placed at 37° C. for 2 h. The tumor tissue homogenate could effectively activate the polypeptide conjugate and release Belotecan, and the activation efficiencies of the drugs in tumor tissues were compared by HPLC allowing determination of a decrease in the compounds and an increase in Belotecan:
Release percentage=peak area of Belotecan/total peak area of Belotecan and all other Belotecan-containing compounds

Series [4] relates to sarcoma SJSA-1 tumor model. Kind of series: Efficacy in animal model of sarcoma SJSA-1, 30 mg/kg once a week for two weeks (Example 40). It is filed as in vivo, BALB/c mice. Conditions: 30 mg/kg once a week for two weeks; Day 14. The method, then: Test objective: To further compare the antitumor efficacy of different polypeptide Linkers in an animal tumor model of sarcoma SJSA-1.
as §1
The control group was administered normal saline. Administration was performed once a week for two weeks.

Series [5] can be described thus: Tumor homogenate activation efficiency, breast cancer tissue (Examples 28, 37). It is filed as in vitro ADME. Conditions: pH 5.0, 37° C., 2 h; Table 10. The method, boiled down: (§2)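 Conjugate at 1 mg/ml in pH 5.0 buffer (50 mM MES, 250 mM NaCl) incubated with 100 μg tissue homogenate at 37° C. for 2 h. HPLC read-out; release % = Belotecan peak area over total area of Belotecan plus all Belotecan-containing species.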

In series [6] the test system is colo320 (colorectal cancer tissue). Kind of series: cells. The following applies: CCK8, 48 h; Table 6. In kind it is cell-based. In a few lines:
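Colo320 cells, 5,000 per well, exposed to drug concentration series for 48 h at 37 °C, 5% CO2 (0.1% DMSO controls). Viability by CCK8, absorbance at 450 nm after about 2 h. Survival rates and IC50 calculated.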

Series [7] concerns colo320 colorectal cancer tumor model. Conditions: Table 8. In a few lines: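 Female BALB/c nude mice, 6–8 weeks old, received 7.5×10^6 colo320 cells subcutaneously in the right chest. Once tumors reached at least 120 mm^3 they were randomized three per group. Treatment with test agents or saline control was given once weekly for four weeks.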
Series [8] is described as follows: Tumor homogenate activation efficiency, sarcoma tissue (Examples 28, 37). The following applies: pH 5.0, 37° C., 2 h; Table 10. In kind it is in vitro ADME. The method, boiled down: as §2
Series [9] deals with sarcoma SJSA-1 tumor model. The following applies: Table 7. The method, boiled down: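 SJSA-1 cells (2×10^7, DMEM/10% FBS, under 15 passages) implanted subcutaneously in right chest of female BALB/c nude mice, 6-8 weeks old. At ≥100 mm^3, randomized three per group; dosing once weekly for three weeks, saline as control, day 1 = first treatment.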
The next series has as its system A2780 (ovarian cancer). Kind of series: cells. In kind it is cell-based. The following applies: CCK8, 48 h; Table 6. The method, boiled down:
(§3)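 Tumour cells grow for 48 h with the compounds at several concentrations (5,000 cells/well, triplicate, 37° C, 5% CO2), in serum-supplemented RPMI1640 or high-glucose DMEM. Viability is measured with CCK8 reagent at 450 nm, and IC50 is calculated.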

In the next series the test system is SJSA-1 (sarcoma tissue). Kind of series: cells. Conditions: CCK8, 48 h; Table 6. It is filed as cell-based. In a few lines:
as §3

Series [10] relates to A549 (non-small cell lung cancer). Kind of series: cells. Conditions: CCK8, 48 h; Table 6. It is filed as cell-based. The method, boiled down: as §3
In series [11] the test system is SKBR3 (breast cancer tissue). Kind of series: cells. It is filed as cell-based. Conditions: CCK8, 48 h; Table 6. In a few lines:
as §3

Series [12] in a line: Tumor homogenate activation efficiency, non-small cell lung cancer tissue (Examples 28, 37). Conditions: pH 5.0, 37° C., 2 h; Table 10. In kind it is in vitro ADME. The method, boiled down: as §2
A short description of series [13]: Tumor homogenate activation efficiency, ovarian cancer tissue (Examples 28, 37). It is filed as in vitro ADME. Conditions: pH 5.0, 37° C., 2 h; Table 10. The method, boiled down:
as §2

Series [14] in a line: MTD determination in mice (Examples 27, 36, 44). Conditions: female, mouse, in vivo; mice, monitored for 14 d; Table 9. In kind it is in vivo. The text has this:
Test animals: 6-8 weeks old mice, all female; mice were grouped randomly, with six mice in each group, administered with drugs at different concentration gradients separately and monitored for 14 d. A mouse was euthanized at a loss of 20% of its initial weight and deemed to have died of poisoning.

The mark [15] stands for this setting: 15 mg/kg once a week for four weeks.
Where [16] appears, read: 45 mg/kg once a week for four weeks.
Setting [17] is: 15 mg/kg once a week for three weeks.
[18] abbreviates: 45 mg/kg once a week for three weeks.

≈ marks a conversion by molar mass, not a printed value. Like-named read-outs stand apart in the source and are kept apart here. Where a SMILES comes first, the peptide text is derived from it. The star is where a group is joined. X1 = CC[C@@]1(O)C(=O)OCc2c1cc1n(c2=O)Cc2c-1nc1ccccc1c2CCN(C1CCC1)*; X3 = CC[C@@]1(O)C(=O)OCc2c1cc1n(c2=O)Cc2c-1nc1ccccc1c2CCN(C1CC1)*; Propanoyl(3-maleimido) = O=C1C=CC(=O)N1CCC(=O)*; PEG6 = NCCOCCOCCOCCOCCOCCOCCC(=O)O

Regarding `CC[C@@]1(O)C(=O)OCc2c1cc1n(c2=O)Cc2c-1nc1ccccc1c2CCN(C(=O)[C@H](CC(C)C)NC(=O)[C@H](CC(N)=O)NC(=O)[C@H](C)NC(=O)[C@H](C)NC(=O)CCOCCOCCOCCOCCOCCOCCNC(=O)CCN1C(=O)C=CC1=O)C1CC1` [MI-6PEG-AANL-D6] ({Propanoyl(3-maleimido)-PEG6}-AANL-X3), the “Mouse weight (%) on Day 14” value in series [1] is “+5.2%”; in series [4] it was −2.5%. The “Percentage of release efficiency (%) Heart tissue” value in series [2] is listed as 3%. The “Percentage of release efficiency (%) Colorectal cancer tissue (colo320)” value in [3] stood at 73.5%. Besides, the “Percentage of release efficiency (%) Breast cancer tissue (SKBR3)” value in series [5] is 66.9%. Further, in series [6], the “IC50 Colorectal cancer tissue (colo320)” value was 1.87 µg/mL (≈ 1.45 µM). For the same compound, the “Mouse weight (%)” value in [7] (setting [15]) is given as “+25%”; in series [7] (setting [16]), “+5%”; in series [9] (setting [17]) it was “+19%”; in [9] (setting [18]) it was “+17%”. The “Percentage of release efficiency (%) Sarcoma tissue (SJSA1)” value in series [8] came to 69.5%. Moreover, the “IC50 Ovarian cancer tissue (A2780)” value in the series on A2780 (ovarian cancer) stood at 0.70 µg/mL (≈ 0.544 µM). The “IC50 Sarcoma tissue (SJSA-1)” value with SJSA-1 (sarcoma tissue) was found to be 0.51 µg/mL (≈ 0.396 µM). In series [10], the “IC50 Non-small cell lung cancer tissue (A549)” value was determined as 1.38 µg/mL (≈ 1.07 µM). In addition, in [11], the “IC50 Breast cancer tissue (SKBR3)” value is 2.02 µg/mL (≈ 1.57 µM). The “Percentage of release efficiency (%) Non-small cell lung cancer tissue (A549)” value in series [12] is 66.1%. The “Percentage of release efficiency (%) Ovarian cancer tissue (A2780)” value in series [13] was 76.2%. In series [14], this compound came in with an MTD at 14 d of 120 mg/kg.
For the compound `CC[C@@]1(O)C(=O)OCc2c1cc1n(c2=O)Cc2c-1nc1ccccc1c2CCN(C(=O)[C@H](CC(C)C)NC(=O)[C@H](CC(N)=O)NC(=O)[C@H](C)NC(=O)[C@H](C)NC(=O)CCOCCOCCOCCOCCOCCOCCNC(=O)CCN1C(=O)C=CC1=O)C1CCC1` [MI-6PEG-AANL-D7] ({Propanoyl(3-maleimido)-PEG6}-AANL-X1), the “Mouse weight (%) on Day 14” value in [1] is given as “+4.8%”; in series [4] it was −3.3%. In addition, the “Percentage of release efficiency (%) Heart tissue” value in series [2] is reported as 2.2%. The “Percentage of release efficiency (%) Colorectal cancer tissue (colo320)” value in series [3] worked out at 76.4%. For the same compound, in series [5], the “Percentage of release efficiency (%) Breast cancer tissue (SKBR3)” value turned out to be 72.3%. Moreover, in [6], the “IC50 Colorectal cancer tissue (colo320)” value was 2.48 µg/mL (≈ 1.91 µM). Also, the “Mouse weight (%)” value was “+29%” in series [7] (setting [15]), “+9%” in series [7] (setting [16]), “+12%” in series [9] (setting [17]) and “+19%” in series [9] (setting [18]). Moreover, the “Percentage of release efficiency (%) Sarcoma tissue (SJSA1)” value in [8] came to 71.7%. The “IC50 Ovarian cancer tissue (A2780)” value in the series on A2780 (ovarian cancer) amounted to 0.91 µg/mL (≈ 0.699 µM). Further, in the series on SJSA-1 (sarcoma tissue), the “IC50 Sarcoma tissue (SJSA-1)” value came to 1.33 µg/mL (≈ 1.02 µM). For the same compound, the “IC50 Non-small cell lung cancer tissue (A549)” value in series [10] was determined as 1.81 µg/mL (≈ 1.39 µM). Also, in [11], the “IC50 Breast cancer tissue (SKBR3)” value is 2.01 µg/mL (≈ 1.54 µM). In series [12], the “Percentage of release efficiency (%) Non-small cell lung cancer tissue (A549)” value is given as 74.6%. Further, in [13], the “Percentage of release efficiency (%) Ovarian cancer tissue (A2780)” value worked out at 66.7%. The MTD at 14 d in series [14] was 150 mg/kg.
